Reference: US20160024208A1 (Regeneron, published 2016)
Substitutions are numbered along the chain they refer to.

T1: C-term Biotin Nav1.7 (3-1) peptide, human (human, not fully specified; C-terminal biotin attached via a G4S linker)
T1 construct: Synthetic peptide; also called Human Nav1.7 3-1 C-term biotin
T1 peptide: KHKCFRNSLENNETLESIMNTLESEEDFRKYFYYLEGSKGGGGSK

T2: N-Term Biotin Nav1.7 (3-1) peptide, mulatta (mulatta (monkey), not fully specified; N-terminal biotin attached via a G4S linker)
T2 construct: Synthetic peptide; also called Mulatta Nav1.7 3-1 N-term biotin; monkey
T2 peptide: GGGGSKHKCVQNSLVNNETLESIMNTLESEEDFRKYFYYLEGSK

T3: N-Term Biotin-Nav1.7 (3-1) peptide, human (human, not fully specified; N-terminal biotin attached via a G4S linker)
T3 construct: ELISA peptide
T3 peptide: T2 peptide with V10F, Q11R, V15E

T4: N-Term Biotin Nav1.7 (3-1) peptide, mouse (mouse, not fully specified; N-terminal biotin attached via a G4S linker)
T4 construct: Synthetic peptide; also called Mouse Nav1.7 3-1 N-term biotin
T4 peptide: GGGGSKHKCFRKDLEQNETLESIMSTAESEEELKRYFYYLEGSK

T5: Native Nav1.7 (3-1) peptide, rat (rat)
T5 construct: Synthetic peptide; also called Rat Nav1.7 3-1 native
T5 peptide: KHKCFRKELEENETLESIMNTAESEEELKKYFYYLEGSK

B1: H1M797N (antibody, V domains shown)
VH: QVQLVESGGGVVQPGRSLRLSCAASGFTFSSYGMHWVRQAPGKGLEWVAVISYDGNNKHFADSVKGRFTISRDNSKNTLNLQMNSLRAEDRAVYYCARGASGFVLDIWGQGTMVTVSS
VL: DIVMTQTPLSSPVTLGQPASISCRSSQSLVRSDGNTYLSWLQQRPGQPPRLLIYKISNRFSGVPDRFSGSGAGTDFTLKISRVEAEDVGIYFCMQTTQFPFTFGPGTKVDIK
B2: H1M801N (antibody, V domains shown)
VH: QVQVVESGGGVVQPGRSLRLSCAASGFTFSNYGMHWVRQAPGKGLEWVTVISYDGSNKNYADSVKGRFTISRDNSKNTLYLQMNSLRAEDTAMYYCARGGSGFAFDIWGQGTMVTVSS
VL: B1 VL with E86D, I90V, F92Y
notes: also called H1H801N
B3: H1M852N (antibody, V domains shown)
VH: QVQLVESGGGVVQPGRSLTLSCAASGFMFNRFGMHWVRQAPGKGLDWVAVIWYDGSNKYYADSVKGRFTISRDNSKNTLYLQVNSLRAEDTAVYYCAREGTPHYYDSSGLDYWGQGTLVTVSS
VL: AIQMTQSPSSLSAYVGDRVTITCRASQDIRNDLGWYQQKPGKAPNLLIYDISSLQSGVPSRFSGSGSGTDFTLTISSLQPEDFATYYCLQDYNYPLTFGGGTKVEIK
notes: constant region may differ; also called H4H852N
B4: H1M836N (antibody, V domains shown)
VH: QVQLVESGGGVVQPGRSLRLSCAASGFTFSSYGMHWVRQAPGKGLEWVAVISYDGNNKYYADSVKGRFTISRDNSKNTLYLQMNSLRAEDTAVYYCAKGSAGYALDYWGQGTLVTVSS
VL: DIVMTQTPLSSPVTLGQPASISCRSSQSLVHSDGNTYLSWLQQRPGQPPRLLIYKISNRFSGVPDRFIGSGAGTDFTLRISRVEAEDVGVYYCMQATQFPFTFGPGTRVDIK
B5: H1M879N (antibody, V domains shown)
VH: EVQLVESGGGLVKPGGSLRLSCAASGFTFSSYTIHWVRQAPGKGLEWVSSISSSSSYIYYVDSVKGRFTISRDNAKNSVYLQMNSLRAEDTAVYYCATSSITARGYFDYWGQGTLVTVSS
VL: EIVLTQSPATLSLSPGERVTLSCRASQSVSSYLAWYQQKPGQAPRLLIYDASNRATGIPARFSGSGSGTDFTLTISSLEPEDFAVYYCQQRNIWPPTFGQGTKVEIK
notes: Hybridoma-derived
B6: H1H1006B (antibody, V domains shown)
VH: EVQLVESGPGLVKSSETLSLKCTVSGGSISSSGYYWGWIRQPPGKGLEWIGSIHRSGSTFYNPSLKSRVTISVDTSKSQFSLRLTSVTAADTSVYFCGRHGRDYYYGMDVWGQGTTVTVSS
VL: DIQMTQSPSSVSASVGDRVTITCRSSQDINNWLVWYQQKPGKAPKVLIYGASRLQSGVPSRFSGSGSGTDFTLTISSLQPEDFATYYCQQANSFPLTFGGGTKVEIKR
notes: Fully human antibody; also called H4H1006B-1

Target: T1, C-term Biotin Nav1.7 (3-1) peptide, …
Assay: SPR, captured biotin-peptide, antibody analyte

Kd	t1/2	binding result	Binder
0.359 nM	1.65 h		B1
0.511 nM	1.18 h		B2
		no binding	B3
19.2 nM	0.0633 h		B4
0.27 nM	1.45 h		B5
0.239 nM	1.36 h		B6

Target: T2, N-Term Biotin Nav1.7 (3-1) peptide, …
Assay: ELISA on coated peptide, antibody 1 ug/ml, OD450 grade
How it was run: (§1)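 Peptides coated at 4 μg/mL in PBS, or biotinylated peptides captured at 0.4 μg/mL on avidin (2 μg/mL). Antibodies at 0.1 and 1.0 μg/mL, 1 h at room temperature, detected with HRP anti-mouse or anti-human IgG and TMB at OD450. Scores at 1 μg/ml: <0.2 −; 0.2–1 +; 1–2 ++; 2–4 +++.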

OD450	Binder
2 to 4 od	B1
2 to 4 od	B2
2 to 4 od	B4
2 to 4 od	B5
2 to 4 od	B6

Target: T3, N-Term Biotin-Nav1.7 (3-1) peptide, …
Assay: as above
How it was run: as §1

OD450	Binder
2 to 4 od	B1
1 to 2 od	B2
2 to 4 od	B4
2 to 4 od	B5
2 to 4 od	B6

Target: T4, N-Term Biotin Nav1.7 (3-1) peptide, …
Assay: as above
How it was run: as §1

OD450	Binder
2 to 4 od	B1
1 to 2 od	B2
2 to 4 od	B6

Target: T5, Native Nav1.7 (3-1) peptide, rat
Assay: as above
How it was run: as §1

OD450	Binder
2 to 4 od	B1
1 to 2 od	B2
1 to 2 od	B4
2 to 4 od	B6

target: T6, full-length human Nav1.7 fused at its N-terminus to GFP, expressed in HEK293 cells (human, UniProt Q15858 1-1988); assay: flow cytometry; % stained hNav1.7-GFP-HEK293 minus parental HEK293
T6 construct: Voltage-gated sodium channel alpha subunit; In the Western blot it stood as denatured cell lysate; also called hNav 1.7-GFP-HEK293; Nav 1.7-GFP-HEK293; not shown: green fluorescent protein (GFP) at the N-terminus
How it was run: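 Antibody (1-13 nM) incubated 20 min on ice with stably transfected hNav1.7-GFP-HEK293 or parental HEK293 cells in PBS/5% FBS, then 1.7 nM Cy5- or APC-labelled anti-Fc secondary for 20 min on ice. Flow cytometry of live-gated cells; specific binding = % stained transfected minus % stained parental.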

% Binding Nav1.7	Binder
14.4%	B1
49.5%	B2
68.6%	B3
68.9%	B4
63%	B5
8.6%	B6
